Experimental data: patent US20200164068A1, “MODULATORS OF TUMOR IMMUNE RESISTANCE FOR THE TREATMENT OF CANCER” (DEUTSCHES KREBSFORSCHUNGSZENTRUM STIFTUNG DES ÖFFENTLICHEN …, priority 2016, published 2020)

B1: CCR9-specific shRNA (nucleic acid)
DNA: ACCGGGCCAGTGGAGGTCTTTGTTCTGTTAATATTCATAGCAGAACAAGGACCTTCACTGGCTTTT

Columns and labels:
MCF7 cells = test: Chromium-release cytotoxicity assay, MCF7 cells and survivin-specific CTL; format: cell-based; details: MCF7 cells pre-treated with 250 ng/ml PTX for 1 h, compared to CCR9 gene knockdown
Description: (§1) Tumor cells were transfected with the described siRNAs using RNAiMAX or with pCMV6-AC-His-CCR9 encoding vector and empty control vector (OriGene, Rockville, USA) using TransIT-LT1. 72 h later, transfected cells were harvested for chromium-release cytotoxicity assay as detailed in Supplementary Methods. For CCR9 blockade using pertussis toxin (PTX), […] tumor cells were incubated with 250 ng/ml of PTX (Sigma Aldrich) for 1 h at 37° C. before labeling with radioactive chromium.

CCR9+ tumor cells = test: Transwell migration assay toward CCL25; format: cell-based
M579-A2 tumor cells = test: Chromium-release cytotoxicity assay, M579-A2 melanoma cells and TIL 209; format: cell-based, human; details: stable CCR9 knockdown M579-A2 versus shControl
Text: MCF7, MDA-MB-231 (breast cancer), and PANC-1 pancreatic cancer cells were acquired from American Type Cell Culture (Wesel, Germany). MCF7luc cells were generated by electroporation with pEGFP-Luc plasmid and expansion of sorted GFP+ clones in selection medium containing […] G418 (Gibco, UK). M579-A2 melanoma culture was established from a patient and stably transfected with HLA-A2 expression construct as described before (Machlenkin et al, 2008). For stable CCR9 knockdown, lentiviral particles were produced using the pRSI9-U6-TagRFP-2APuro lentiviral expression vector (Cellecta) that contained either the CCR9-specific shRNA hairpin ([…]: SEQ ID NO. 5) or control nontargeting shRNA. Viruses were packaged using the psPAX2 and pMD2.G packaging plasmids (Addgene), and tumor cell lines were transduced with the viral particles as per the manufacturer's protocol.
as §1

HLA-A2 = test: Surface HLA-A2 expression on M579-A2 cells; format: cell-based, human; details: M579-A2 upon CCR9 knockdown
M579-A2 tumors = test: In vivo M579-A2 tumor growth in NSG mice with adoptive TIL 209 transfer
Description: Appropriate approval for animal work was obtained from the regulatory authorities (Regierungsprasidium, Karlsruhe) before the start of the experiment. Four- to six-week-old female NSG mice were ordered from the Animal Core Facility at DKFZ, Heidelberg. Mice were subcutaneously injected with 5×10^5 cells (in 100 μl of matrigel per injection) of each CCR9-M579-A2 (transduced with CCR9-specific shRNA) and CCR9+M579-A2 (transduced with non-targeting control shRNA) cell lines in the left and the right flank, respectively. Following this, at Day 2 and Day 9, 7 out of the 10 tumor-bearing mice received adoptive transfer of expanded TIL 209 cells intravenously into the tail vein (1×10^7 cells/100 μl PBS/mouse). The remaining three mice were injected with PBS alone to assess tumor growth in the absence of adoptive TIL transfer. Tumor measurements were performed using a digital caliper (Carl Roth) at the indicated time points, and tumor volume was measured using the formula: volume=height*width*width*(n/3).
Differences between test and control groups were analyzed by two-sided Student's t-test. In all statistical tests, a P-value <0.05 was considered significant. Statistical difference between the tumor growth curves in vivo was assessed using the unpaired one-sided Mann-Whitney U-test.

CCL25 = test: ELISA of CCL25 levels in tumor cell lysates; format: cell-based; details: stable knockdown

Molecule	Tumor lysis by antigen-specific T cells (MCF7 cells)	Migration of CCR9+ tumor cells toward CCL25 (CCR9+ tumor cells)	Immune lysis by tumor-infiltrating lymphocytes (TIL 209) (M579-A2 tumor cells)	Surface HLA-A2 expression (HLA-A2)	Tumor growth kinetic without T cell transfer (M579-A2 tumors; CCR9- versus CCR9+ M579-A2 tumors in NSG mice given PBS alone)	Tumor growth in response to adoptive T cell transfer (M579-A2 tumors; CCR9- versus CCR9+ M579-A2 tumors s.c. in NSG mice, TIL 209 i.v. at Day 2 and Day 9)	CCL25 production by MCF7 breast cancer cells (CCL25)
pertussis toxin	did not elicit elevated tumor lysis	inhibited the migration	–	–	–	–	–
B1	–	–	more susceptible to immune lysis	no significant difference	No difference	grew significantly slower	did not affect
